From patent US20220315627A1 come the findings set out here.

Experiment [1] addresses C97ZA_SOSIP_L556P_T651F_M535N (HIV-1 strain C97ZA (clade C)). In words: AlphaLISA on crude supernatant as in Example 3: normalized PGT145 signal.
For experiment [2], the target named is ConC_SOSIP with disulfide double substitution I204C, A433C (HIV-1 clade C consensus (artificial)). Put plainly: AlphaLISA on crude supernatant: PGT145 signal divided by total Env signal (His/Flag beads).
The target in experiment [3] is ConC_SOSIP with E64K, T316W double substitution (HIV-1 clade C consensus (artificial)). The description is as above.
Experiment [4] addresses variant of repaired and stabilized Du422 construct (HIV161818) with the additional K655I substitution (HIV-1 strain Du422 (clade C)). In words: assay not named in Example 11; trimer percentage as defined in Example 3 (PGT145 AlphaLISA signal over total Env signal).
Experiment [5] has the same target. Put plainly: assay not named in Example 11; trimer yield as defined in Example 3 (PGT145 AlphaLISA signal).

In the case of mAb PGT145 (antibody), the trimer yield, fold over the C97ZA SOSIP backbone in experiment [1] was found to be 5 fold. Moreover, the percentage of trimer formation came to 43% in experiment [2] and 15% in experiment [3]. Also, in experiment [4], the trimer percentage, fold over the variant of SEQ ID NO: 25 without K655I came to 1.4 fold. In addition, the trimer yield, fold over the variant of SEQ ID NO: 25 without K655I in experiment [5] amounted to 1.3 fold.
